Molecular target: IL-1 receptor (IL-1R1) on A375.s2 cells (UniProt P14778)
Assay: cell-based or functional assay

UniProt P14778, sequence (P14778 18-569 limits assumed): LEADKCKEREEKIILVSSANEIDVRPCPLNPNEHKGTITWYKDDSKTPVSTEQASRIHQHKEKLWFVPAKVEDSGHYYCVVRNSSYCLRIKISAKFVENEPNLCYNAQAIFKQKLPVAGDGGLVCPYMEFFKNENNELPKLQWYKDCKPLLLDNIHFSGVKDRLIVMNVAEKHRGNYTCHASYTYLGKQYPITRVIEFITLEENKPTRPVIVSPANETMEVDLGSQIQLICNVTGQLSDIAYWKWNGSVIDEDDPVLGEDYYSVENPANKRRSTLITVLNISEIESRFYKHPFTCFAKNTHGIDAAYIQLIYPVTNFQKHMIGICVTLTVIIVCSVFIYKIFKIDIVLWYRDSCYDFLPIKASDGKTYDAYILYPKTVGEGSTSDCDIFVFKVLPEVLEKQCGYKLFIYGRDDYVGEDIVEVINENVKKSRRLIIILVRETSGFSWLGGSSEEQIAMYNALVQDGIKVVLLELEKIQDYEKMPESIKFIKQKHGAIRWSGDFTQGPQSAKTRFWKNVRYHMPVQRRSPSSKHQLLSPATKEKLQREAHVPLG

Row | Substance | IC50(µg/ml), inhibition of IL-1β induced A375.s2 apoptosis (MTS, 490 nM) | biological activity relative to the wild type | IL1RN activity IC50
1 | IL-1RN D74N-Fc without linker (from UniProt P18510 26-177) (Fc fusion) | 4.85 µg/mL | 3 fold | 
2 | IL-1RN-Fc, single-target comparator of Table 4 (from UniProt P18510 26-177) (Fc fusion) |  |  | 0.333 µg/mL
3 | IL-1RN-TNFR2-Fc dual-target fusion protein (IL-1RN D74N, TNFR2, hIgG4 Fc S228P) (Fc fusion) |  |  | 0.714 µg/mL
4 | Wild-type IL-1RN-Fc of Table 2 (from UniProt P18510 26-177) (Fc fusion) | 12.1 µg/mL |  | 
